{"source": "the supplement of paper PMC10567573", "parents": {"B1": {"name": "USP39 (parent)", "chain": "FVEKNPTIVNFPITNVDLREYLSE"}}}
{"variants_of": "B1", "test": "protein stability index of a GFP-peptide fusion (GPS, HEK-293T) (PSI 1-6); higher = more stable", "details": "c terminus: a fixed tail appended"}
{"variant": "FVEKNPTIVNFPITNTDLREYLSE", "note": "[V16T]", "protein stability index": 2.94}
{"variant": "FVEKNPTIVNFPITNDDLREYLSE", "note": "[V16D]", "protein stability index": 1.89}
{"variant": "FVEKNPTIVNFPITNFDLREYLSE", "note": "[V16F]", "protein stability index": 1.8}
{"variant": "FVEKNPTIVNFPITNEDLREYLSE", "note": "[V16E]", "protein stability index": 2.04}
{"variant": "FVEKNPTIVNFPITNADLREYLSE", "note": "[V16A]", "protein stability index": 2.02}
{"variant": "FVEKNPTIVNFPITNLDLREYLSE", "note": "[V16L]", "protein stability index": 2.05}
{"variant": "FVEKNPTIVNFPITNHDLREYLSE", "note": "[V16H]", "protein stability index": 1.49}
{"variant": "FVEKNPTIVNFPITNCDLREYLSE", "note": "[V16C]", "protein stability index": 1.41}
{"variant": "FVEKNPTIVNFPITNQDLREYLSE", "note": "[V16Q]", "protein stability index": 1.99}
{"variant": "FVEKNPTIVNFPITNMDLREYLSE", "note": "[V16M]", "protein stability index": 2.37}
{"variant": "FVEKNPTIVNFPITNKDLREYLSE", "note": "[V16K]", "protein stability index": 1.74}
{"variant": "FVEKNPTIVNFPITNPDLREYLSE", "note": "[V16P]", "protein stability index": 2.29}
{"variant": "FVEKNPTIVNFPITNGDLREYLSE", "note": "[V16G]", "protein stability index": 1.89}
{"variant": "FVEKNPTIVNFPITNSDLREYLSE", "note": "[V16S]", "protein stability index": 1.82}
{"variant": "FVEKNPTIVNFPITNNDLREYLSE", "note": "[V16N]", "protein stability index": 1.49}
{"variant": "FVEKNPTIVNFPITNIDLREYLSE", "note": "[V16I]", "protein stability index": 1.6}
{"variant": "FVEKNPTIVNFPITNRDLREYLSE", "note": "[V16R]", "protein stability index": 2.78}
{"variant": "FVEKNPTIVNFPITNWDLREYLSE", "note": "[V16W]", "protein stability index": 1.52}
{"variant": "FVEKNPTIVNFPITNYDLREYLSE", "note": "[V16Y]", "protein stability index": 1.62}
{"variant": "FVEKNPTIVNFPITQVDLREYLSE", "note": "[N15Q]", "protein stability index": 2.13}
{"variant": "FVEKNPTIVNFPITIVDLREYLSE", "note": "[N15I]", "protein stability index": 2.26}
{"variant": "FVEKNPTIVNFPITYVDLREYLSE", "note": "[N15Y]", "protein stability index": 2.3}
{"variant": "FVEKNPTIVNFPITMVDLREYLSE", "note": "[N15M]", "protein stability index": 2.12}
{"variant": "FVEKNPTIVNFPITHVDLREYLSE", "note": "[N15H]", "protein stability index": 1.44}
{"variant": "FVEKNPTIVNFPITRVDLREYLSE", "note": "[N15R]", "protein stability index": 2.21}
{"variant": "FVEKNPTIVNFPITLVDLREYLSE", "note": "[N15L]", "protein stability index": 2.05}
{"variant": "FVEKNPTIVNFPITCVDLREYLSE", "note": "[N15C]", "protein stability index": 1.77}
{"variant": "FVEKNPTIVNFPITTVDLREYLSE", "note": "[N15T]", "protein stability index": 1.43}
{"variant": "FVEKNPTIVNFPITSVDLREYLSE", "note": "[N15S]", "protein stability index": 1.18}
{"variant": "FVEKNPTIVNFPITVVDLREYLSE", "note": "[N15V]", "protein stability index": 2.27}
{"variant": "FVEKNPTIVNFPITAVDLREYLSE", "note": "[N15A]", "protein stability index": 1.52}
{"variant": "FVEKNPTIVNFPITKVDLREYLSE", "note": "[N15K]", "protein stability index": 2.13}
{"variant": "FVEKNPTIVNFPITPVDLREYLSE", "note": "[N15P]", "protein stability index": 1.45}
{"variant": "FVEKNPTIVNFPITDVDLREYLSE", "note": "[N15D]", "protein stability index": 1.56}
{"variant": "FVEKNPTIVNFPITGVDLREYLSE", "note": "[N15G]", "protein stability index": 1.37}
{"variant": "FVEKNPTIVNFPIWNVDLREYLSE", "note": "[T14W]", "protein stability index": 3.7}
{"variant": "FVEKNPTIVNFPISNVDLREYLSE", "note": "[T14S]", "protein stability index": 2.08}
{"variant": "FVEKNPTIVNFPIQNVDLREYLSE", "note": "[T14Q]", "protein stability index": 1.81}
{"variant": "FVEKNPTIVNFPIMNVDLREYLSE", "note": "[T14M]", "protein stability index": 1.57}
{"variant": "FVEKNPTIVNFPIVNVDLREYLSE", "note": "[T14V]", "protein stability index": 2.08}
{"variant": "FVEKNPTIVNFPIKNVDLREYLSE", "note": "[T14K]", "protein stability index": 1.73}
{"variant": "FVEKNPTIVNFPIYNVDLREYLSE", "note": "[T14Y]", "protein stability index": 1.97}
{"variant": "FVEKNPTIVNFPINNVDLREYLSE", "note": "[T14N]", "protein stability index": 2.67}
{"variant": "FVEKNPTIVNFPIPNVDLREYLSE", "note": "[T14P]", "protein stability index": 1.54}
{"variant": "FVEKNPTIVNFPILNVDLREYLSE", "note": "[T14L]", "protein stability index": 1.86}
{"variant": "FVEKNPTIVNFPIRNVDLREYLSE", "note": "[T14R]", "protein stability index": 2.78}
{"variant": "FVEKNPTIVNFPITNVDKREYLSE", "note": "[L18K]", "protein stability index": 1.3}
{"variant": "FVEKNPTIVNFPITNVDEREYLSE", "note": "[L18E]", "protein stability index": 2.05}
{"variant": "FVEKNPTIVNFPITNVDMREYLSE", "note": "[L18M]", "protein stability index": 1.64}
{"variant": "FVEKNPTIVNFPITNVDCREYLSE", "note": "[L18C]", "protein stability index": 2.64}
{"variant": "FVEKNPTIVNFPITNVDSREYLSE", "note": "[L18S]", "protein stability index": 1.43}
{"variant": "FVEKNPTIVNFPITNVDFREYLSE", "note": "[L18F]", "protein stability index": 2.06}
{"variant": "FVEKNPTIVNFPITNVDQREYLSE", "note": "[L18Q]", "protein stability index": 2.64}
{"variant": "FVEKNPTIVNFPITNVDDREYLSE", "note": "[L18D]", "protein stability index": 2.21}
{"variant": "FVEKNPTIVNFPITNVDTREYLSE", "note": "[L18T]", "protein stability index": 1.54}
{"variant": "FVEKNPTIVNFPITNVDIREYLSE", "note": "[L18I]", "protein stability index": 2.53}
{"variant": "FVEKNPTIVNFPITNVDAREYLSE", "note": "[L18A]", "protein stability index": 1.69}
{"variant": "FVEKNPTIVNFPITNVDNREYLSE", "note": "[L18N]", "protein stability index": 1.78}
{"variant": "FVEKNPTIVNFPITNVDWREYLSE", "note": "[L18W]", "protein stability index": 2.33}
{"variant": "FVEKNPTIVNFPITNVDPREYLSE", "note": "[L18P]", "protein stability index": 1.24}
{"variant": "FVEKNPTIVNFPITNVDHREYLSE", "note": "[L18H]", "protein stability index": 1.42}
{"variant": "FVEKNPTIVNFPITNVDYREYLSE", "note": "[L18Y]", "protein stability index": 1.92}
{"variant": "FVEKNPTIVNFPITNVDVREYLSE", "note": "[L18V]", "protein stability index": 2.65}
{"variant": "FVEKNPTIVNFPITNVDGREYLSE", "note": "[L18G]", "protein stability index": 2.1}
{"variant": "FVEKNPTIVNFPITNVDRREYLSE", "note": "[L18R]", "protein stability index": 1.71}
{"variant": "FVEKNPTIVNFPITNVSLREYLSE", "note": "[D17S]", "protein stability index": 2.28}
{"variant": "FVEKNPTIVNFPITNVALREYLSE", "note": "[D17A]", "protein stability index": 2.46}
{"variant": "FVEKNPTIVNFPITNVILREYLSE", "note": "[D17I]", "protein stability index": 3.11}
{"variant": "FVEKNPTIVNFPITNVYLREYLSE", "note": "[D17Y]", "protein stability index": 1.84}
{"variant": "FVEKNPTIVNFPITNVHLREYLSE", "note": "[D17H]", "protein stability index": 2.25}
{"variant": "FVEKNPTIVNFPITNVWLREYLSE", "note": "[D17W]", "protein stability index": 1.4}
{"variant": "FVEKNPTIVNFPITNVELREYLSE", "note": "[D17E]", "protein stability index": 1.95}
{"variant": "FVEKNPTIVNFPITNVNLREYLSE", "note": "[D17N]", "protein stability index": 1.55}
{"variant": "FVEKNPTIVNFPITNVPLREYLSE", "note": "[D17P]", "protein stability index": 1.34}
{"variant": "FVEKNPTIVNFPITNVGLREYLSE", "note": "[D17G]", "protein stability index": 2.02}
{"variant": "FVEKNPTIVNFPITNVKLREYLSE", "note": "[D17K]", "protein stability index": 1.11}
{"variant": "FVEKNPTIVNFPITNVTLREYLSE", "note": "[D17T]", "protein stability index": 1.35}
{"variant": "FVEKNPTIVNFPITNVMLREYLSE", "note": "[D17M]", "protein stability index": 1.62}
{"variant": "FVEKNPTIVNFPITNVVLREYLSE", "note": "[D17V]", "protein stability index": 2.64}
{"variant": "FVEKNPTIVNFPITNVQLREYLSE", "note": "[D17Q]", "protein stability index": 1.92}
{"variant": "FVEKNPTIVNFPITNVFLREYLSE", "note": "[D17F]", "protein stability index": 2.63}
{"variant": "FVEKNPTIVNFPITNVLLREYLSE", "note": "[D17L]", "protein stability index": 1.28}
{"variant": "FVEKNPTIVNFPITNVRLREYLSE", "note": "[D17R]", "protein stability index": 2.25}
{"variant": "FVEKNPTIVNFPITNVCLREYLSE", "note": "[D17C]", "protein stability index": 2.08}
{"variant": "FVEKNPTIVNFPITNVDLLEYLSE", "note": "[R19L]", "protein stability index": 2.06}
{"variant": "FVEKNPTIVNFPITNVDLEEYLSE", "note": "[R19E]", "protein stability index": 2.09}
{"variant": "FVEKNPTIVNFPITNVDLHEYLSE", "note": "[R19H]", "protein stability index": 1.25}
{"variant": "FVEKNPTIVNFPITNVDLGEYLSE", "note": "[R19G]", "protein stability index": 1.64}
{"variant": "FVEKNPTIVNFPITNVDLDEYLSE", "note": "[R19D]", "protein stability index": 1.44}
{"variant": "FVEKNPTIVNFPITNVDLKEYLSE", "note": "[R19K]", "protein stability index": 1.78}
{"variant": "FVEKNPTIVNFPITNVDLIEYLSE", "note": "[R19I]", "protein stability index": 2.49}
{"variant": "FVEKNPTIVNFPITNVDLFEYLSE", "note": "[R19F]", "protein stability index": 2.81}
{"variant": "FVEKNPTIVNFPITNVDLAEYLSE", "note": "[R19A]", "protein stability index": 2.92}
{"variant": "FVEKNPTIVNFPITNVDLCEYLSE", "note": "[R19C]", "protein stability index": 2.05}
